Test results: patent US20090304651A1 (published 2009)
Read-outs that look alike come from different tables or passages of the source. Each block holds one binder with its values, some of them ahead of it.

How the values were obtained:
[1] = target: T1, recombinant human IGF-II (Insulin-like Growth Factor II) (human, UniProt P01344 25-91, biotinylated (Biotinyl-IGF-II, GroPep) where immobilised in SPR, site not stated; not biotinylated in ITC and as SPR analyte); assay: SPR, IGF-II immobilised, kinetic fit
T1 construct: also called IGF2; IGF-2
Procedure, shortened: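 Domain 11 proteins made in Pichia pastoris and purified by His-tag were passed in duplicate, in random order, over ~50 RU of biotinylated IGF-II bound to a streptavidin Sensor Chip SA on a BIAcore 3000 (25° C, HBS-EP, 40 μl/min, 2 min injections, 100 s dissociation, 2 M MgCl₂ regeneration), at 4096–8 nM, or 16384–32 nM for three constructs. Kinetic rate constants and Kd were derived by global sensorgram fitting in BIAevaluation 4.0.1, with blank-flow-cell and buffer-injection signals subtracted first.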

[2] = target: T1, recombinant human IGF-II (Insulin-like …); assay: SPR, steady-state KD relative to wild type
Procedure, shortened: (§1)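 Domain 11 proteins were secreted from Pichia pastoris, purified by His-tag and injected in duplicate over about 50 RU of biotinylated IGF-II captured on a streptavidin Sensor Chip SA in a BIAcore 3000 at 25° C, in HBS-EP at 40 μl/min with 2 min injections. Analyte concentrations spanned 4096–8 nM, or 16384–32 nM for three constructs, and blank-flow-cell and buffer-injection signals were subtracted. Kd was obtained in BIAevaluation by fitting the equilibrium response at each concentration to a steady-state affinity model.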

[3] = target: T1, recombinant human IGF-II (Insulin-like …); assay: SPR, IGF-II immobilised, steady state
Method: (§2) Duplicate analyte injections were performed at concentrations of 4096, 2048, 1024, 512, 256, 128, 64, 32, 16 and 8 nM.
(§3) Kinetic analysis by Surface Plasmon Resonance (SPR) was conducted on a BIAcore 3000 biosensor (BIAcore, Uppsala, Sweden) at 25° C. in HBS-EP (10 mM HEPES, pH 7.4, 150 mM NaCl, 3 mM EDTA, 0.005% surfactant P20) at a flow rate of 40 μl/min. […] Kinetic experiments consisted of a two minute injection of analyte followed by a 100 s dissociation phase in running buffer, after which the binding surface was regenerated with a 2 minute injection of 2 M MgCl₂. A blank flow cell was used for in-line reference subtraction of changes due to differences in refractive index of running buffer versus sample and a buffer-only injection was used to subtract instrument noise and drift. Injections were performed in duplicate for each concentration and in a randomised order. Kinetic parameters were determined by global fitting of sensorgrams to a two-state (conformational change) binding model using BIAevaluation software version 4.0.1. In all cases the minor component made an insignificant contribution to the overall affinity and as such only the kinetic parameters of the major binding component were used. For each interaction the dissociation affinity constant (KD) was also calculated by fitting of the response of each concentration at equilibrium to a steady-state affinity model using BIAevaluation.

[4] = target: T1, recombinant human IGF-II (Insulin-like …); assay: SPR, IGF-II immobilised, kinetic fit; remark: listed apart in the source
Method: as §2, §3

[5] = target: T1, recombinant human IGF-II (Insulin-like …); assay: SPR, steady-state KD relative to wild type; remark: listed apart in the source
Method: as §2, §3

[6] = target: T1, recombinant human IGF-II (Insulin-like …); assay: SPR, IGF-II immobilised, steady state; remark: listed apart in the source
Procedure, shortened: as §1

[7] = target: T1, recombinant human IGF-II (Insulin-like …); assay: SPR, IGF-II immobilised
Method: (§4) Kinetic experiments consisted of a two minute injection of analyte followed by a 100 s dissociation phase in running buffer, after which the binding surface was regenerated with a 2 minute injection of 2 M MgCl₂. A blank flow cell was used for in-line reference subtraction of changes due to differences in refractive index of running buffer versus sample and a buffer-only injection was used to subtract instrument noise and drift. Injections were performed in duplicate for each concentration and in a randomised order. Kinetic parameters were determined by global fitting of sensorgrams to a two-state (conformational change) binding model using BIAevaluation software version 4.0.1. In all cases the minor component made an insignificant contribution to the overall affinity and as such only the kinetic parameters of the major binding component were used. For each interaction the dissociation affinity constant (KD) was also calculated by fitting of the response of each concentration at equilibrium to a steady-state affinity model using BIAevaluation. In order to investigate the influence of ionic strength, kinetic experiments were conducted in HBS-EP running buffers containing the desired NaCl concentration. In each case, analyte samples were made up in the appropriate running buffer prior to injection.
(§5) The affinity of versions of Fc-tagged domain 11 fusion proteins, and domain 11 constructs, for IGF-II were compared using surface plasmon resonance (BIAcore 3000). Attempts were made to immobilize Fc-tagged domain 11 proteins upon a sensor chip surface (CM5 and CM5-proteinA) but we encountered similar problems as described above with immobilised monomeric domain 11. Instead, immobilisation of biotinylated IGF-I and IGF-II on separate flow cells of a streptavidin coated sensor chip (BIAcore) generated reproducible sensorgram profiles when Fc-tagged and untagged domain 11 proteins were passed over the surface as analytes. The Fc-tagged domain 11 kinetic data performed in triplicate generated sensorgrams that were analyzed using a bivalent analyte model.

[8] = target: T1, recombinant human IGF-II (Insulin-like …); assay: SPR (Biacore)
[9] = target: T1, recombinant human IGF-II (Insulin-like …); assay: SPR, steady-state KD relative to wild type; remark: listed apart in the source
Method: […]. Values are the mean±S.E.M. of three separate experiments.
as §3, with “BIAevaluation. In order to investigate the influence of ionic strength, kinetic experiments were conducted in HBS-EP running buffers containing the desired NaCl concentration. In each case, analyte samples were made up in the appropriate running buffer prior to injection.” for “BIAevaluation.”
Following purification, the binding of each mutant construct to IGF2 was assessed by SPR and compared to the wild type domain 11.

[10] = target: T1, recombinant human IGF-II (Insulin-like …); assay: SPR, IGF-II immobilised, steady state; remark: listed apart in the source
Method: as §3, with “BIAevaluation. In order to investigate the influence of ionic strength, kinetic experiments were conducted in HBS-EP running buffers containing the desired NaCl concentration. In each case, analyte samples were made up in the appropriate running buffer prior to injection.” for “BIAevaluation.”
(§6) Following purification, the binding of each mutant construct to IGF2 was assessed by SPR and compared to the wild type domain 11. Sensorgrams were generated using biotinylated IGF2 immobilised to the cell surface and mutant domain 11 proteins as the free analyte (FIG. 4).

[11] = target: T1, recombinant human IGF-II (Insulin-like …); assay: SPR, IGF-II immobilised, kinetic fit; remark: listed apart in the source
Method: as §3, with “BIAevaluation. In order to investigate the influence of ionic strength, kinetic experiments were conducted in HBS-EP running buffers containing the desired NaCl concentration. In each case, analyte samples were made up in the appropriate running buffer prior to injection.” for “BIAevaluation.”
as §6

[12] = target: T1, recombinant human IGF-II (Insulin-like …); assay: ITC, IGF-II titrated into domain 11
Method: Calorimetric measurements were performed using a VP-ITC microcalorimeter (MicroCal). All solutions were thoroughly degassed before use by stirring under vacuum. […] The sample cell contained either wild type domain 11 (7 uM) or the E1544A mutant (8 μM), also in HBS-E buffer. To correct for the heat effects of dilution and mixing, reaction heats obtained from a control experiment, in which IGF2 was injected into HBS-E, were subtracted. Calorimetric data were analysed using MicroCal ORIGIN software (version 5.0) supplied with the instrument. Thermodynamic parameters were derived by fitting the binding isotherms to a single-site binding model. Values for dissociation affinity constants (KD) were determined from duplicate experiments.
In order to validate the SPR sensorgram data, ITC was used to assess the binding affinity between domain 11 and IGF-II. The affinity of the E1544A mutant was also assessed by ITC in order to confirm whether use of a second technique agreed as to the apparent increase in affinity (FIG. 6 and Table 6). Titrations were performed using 17×15 μl injections of 40 μM IGF-II (after an initial 7.51 injection) into the reaction cell containing wild type domain 11 or the E1544A mutant. […] The two fold differences may be simply accounted for by the fidelity of both techniques.

[13] = target: T2, recombinant human IGF-I (Insulin-like Growth Factor I) (human, UniProt P05019 49-118, biotinylated (Biotinyl-IGF-I, GroPep), site not stated); assay: SPR, biotinylated IGF-I immobilised
T2 construct: also called IGF1; Biotinyl-IGF-I
Method: as §4, §5

T1 sequence (P01344 25-91 limits assumed): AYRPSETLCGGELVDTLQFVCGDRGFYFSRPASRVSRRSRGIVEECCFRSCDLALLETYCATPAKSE
T2 sequence (P05019 49-118 limits assumed): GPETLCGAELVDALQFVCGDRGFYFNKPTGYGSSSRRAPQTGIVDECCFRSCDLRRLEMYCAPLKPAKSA

- Kd [1]: 60.5 nM
- koff [1]: 0.0675 s⁻¹
- kon [1]: 1.12e+06 M⁻¹ s⁻¹
- Relative Affinity [2]: 1.96 fold (wild type = 1.00)
- Kd [3]: 52.7 nM
- Kd [4]: 49.8 nM
- koff [4]: 0.041 s⁻¹
- kon [4]: 837000 M⁻¹ s⁻¹
- Relative Affinity [5]: 1.96 fold (wild type = 1.00)
- Kd [6]: 52.7 nM
B1: IGF2R domain 11 E1544V (amino acids 1511-1650, C-terminal His6 tag, from Pichia pastoris) (receptor)
chain: NEHDDCQVTNPSTGHLFDLSSLSGRAGFTAAYSVKGLVYMSICGENENCPPGVGACFGQTRISVGKANKRLRYVDQVLQLVYKDGSPCPSKSGLSYKSVISFVCRPEAGPTNRPMLISLDKQTCTLFFSWHTPLACEQATHHHHHH

- binding result [7]: binds
B2: IGF2R domain 11 with cysteine at position 1544 (E1544C) (receptor)
chain: NEHDDCQVTNPSTGHLFDLSSLSGRAGFTAAYSCKGLVYMSICGENENCPPGVGACFGQTRISVGKANKRLRYVDQVLQLVYKDGSPCPSKSGLSYKSVISFVCRPEAGPTNRPMLISLDKQTCTLFFSWHTPLACEQATHHHHHH

- Kd [8]: 170 nM
- Relative Affinity [9]: 0.61 fold (wild type = 1.00)
- Kd [10]: 170 nM
- Kd [11]: 179 nM
- koff [11]: 0.079 s⁻¹
- kon [11]: 441000 M⁻¹ s⁻¹
- Kd [12]: 324 nM
B3: IGF2R domain 11 S1596A (amino acids 1511-1650, C-terminal His6 tag, from Pichia pastoris) (receptor)
chain: NEHDDCQVTNPSTGHLFDLSSLSGRAGFTAAYSEKGLVYMSICGENENCPPGVGACFGQTRISVGKANKRLRYVDQVLQLVYKDGAPCPSKSGLSYKSVISFVCRPEAGPTNRPMLISLDKQTCTLFFSWHTPLACEQATHHHHHH

B4: IGF2R domain 11 I1572A (amino acids 1511-1650, C-terminal His6 tag, from Pichia pastoris) (receptor)
chain: NEHDDCQVTNPSTGHLFDLSSLSGRAGFTAAYSEKGLVYMSICGENENCPPGVGACFGQTRASVGKANKRLRYVDQVLQLVYKDGSPCPSKSGLSYKSVISFVCRPEAGPTNRPMLISLDKQTCTLFFSWHTPLACEQATHHHHHH
notes: also called null mutant
- binding result [13]: no binding (tested: 16384 nM highest analyte concentration)
